Test results: patent US20170015742A1 (published 2017)

Columns and labels:
Human PDGF-BB = biological target: T1, Human PDGF-BB (human, UniProt P01127 82-190); assay: SPR (Biacore), method of Example 1.1
T1 construct: also called hPDGF-BB

Human VEGF-A 165 = biological target: T2, Human VEGF-A 165 (human, UniProt P15692 207-395); assay: SPR (Biacore), method of Example 1.1
T2 construct: also called hVEGF165
T2 sequence (P15692 other isoform, or with tags, fused parts or gaps limits assumed): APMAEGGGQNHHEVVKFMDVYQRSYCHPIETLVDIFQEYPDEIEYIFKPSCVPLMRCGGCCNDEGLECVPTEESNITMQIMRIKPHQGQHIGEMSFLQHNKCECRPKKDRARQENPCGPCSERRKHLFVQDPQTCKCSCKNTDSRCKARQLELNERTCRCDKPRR

T1 sequence (P01127 82-190 limits assumed): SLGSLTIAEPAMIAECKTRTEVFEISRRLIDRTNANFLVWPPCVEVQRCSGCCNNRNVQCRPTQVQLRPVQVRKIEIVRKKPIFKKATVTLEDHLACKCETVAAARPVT

| Kd (Human PDGF-BB) [nM] | kon (Human PDGF-BB) [M⁻¹ s⁻¹] | Kd (Human VEGF-A 165) [nM] | kon (Human VEGF-A 165) [M⁻¹ s⁻¹] | Binder |
| --- | --- | --- | --- | --- |
| 0.0065 | 3e+07 | 57 |  | CODV017 (bispecific antibody, human IgG1, kappa, L234A L235A, Anti-human VEGF-A/anti-human PDGF-BB cross-over DVD-Ig (CO-DVD-Ig); also called PR-1571830) heavy: DTVLTQSPATLSLSPGERATLSCRASESVSTHMHWYQQKPGQAPRLLIYGASNLESGVPARFSGSGSGTDFTLTISSLEPEDFAVYFCQQSWNDPFTFGQGTKLEIKGGGSGGGEFVLTQSPGTLSLSPGERATLSCERSSGDIGDSYVSWYQQKPGQAPRLVIYADDQRPSGIPDRFSGSGSGTDFTLTISRLEPEDFAVYYCQSYDINIDIVFGGGTKVEIKGGGSGASTKGPSVFPLAPSSKSTSGGTAALGCLVKDYFPEPVTVSWNSGALTSGVHTFPAVLQSSGLYSLSSVVTVPSSSLGTQTYICNVNHKPSNTKVDKKVEPKSCDKTHTCPPCPAPEAAGGPSVFLFPPKPKDTLMISRTPEVTCVVVDVSHEDPEVKFNWYVDGVEVHNAKTKPREEQYNSTYRVVSVLTVLHQDWLNGKEYKCKVSNKALPAPIEKTISKAKGQPREPQVYTLPPSREEMTKNQVSLTCLVKGFYPSDIAVEWESNGQPENNYKTTPPVLDSDGSFFLYSKLTVDKSRWQQGNVFSCSVMHEALHNAYTQKSLSLSPGK light: EVTLRESGPALVKPTQTLTLTCTFSGFSLSTYGMGVGWIRQPPGKALEWLANIWWDDDKYYNPSLKNRLTISKDTSKNQVVLTMTNMDPVDTATYYCARIESIGTTYSFDYWGQGTMVTVSSGEVQLVQSGSELKKPGASVKVSCKASGYTFTNYGMYWVRQAPGQGLEWMGWINTETGKPTYADDFKGRFVFSLDTSVSTAYLQISSLKAEDTAVYYCARTNYYYRSYIFYFDYWGQGTMVTVSSGGRTVAAPSVFIFPPSDEQLKSGTASVVCLLNNFYPREAKVQWKVDNALQSGNSQESVTEQDSKDSTYSLSSTLTLSKADYEKHKVYACEVTHQGLSSPVTKSFNRGEC |
| 0.0025 | 4.6e+07 | 0.02 | 2.9e+06 | CODV016 (bispecific antibody, human IgG1, kappa, L234A L235A, Anti-human VEGF-A/anti-human PDGF-BB cross-over DVD-Ig (CO-DVD-Ig); also called PR-1571828) heavy: EVQLVQSGSELKKPGASVKVSCKASGYTFTNYGMYWVRQAPGQGLEWMGWINTETGKPTYADDFKGRFVFSLDTSVSTAYLQISSLKAEDTAVYYCARTNYYYRSYIFYFDYWGQGTMVTVSSGGGGSGGGEFVLTQSPGTLSLSPGERATLSCERSSGDIGDSYVSWYQQKPGQAPRLVIYADDQRPSGIPDRFSGSGSGTDFTLTISRLEPEDFAVYYCQSYDINIDIVFGGGTKVEIKGGGSGASTKGPSVFPLAPSSKSTSGGTAALGCLVKDYFPEPVTVSWNSGALTSGVHTFPAVLQSSGLYSLSSVVTVPSSSLGTQTYICNVNHKPSNTKVDKKVEPKSCDKTHTCPPCPAPEAAGGPSVFLFPPKPKDTLMISRTPEVTCVVVDVSHEDPEVKFNWYVDGVEVHNAKTKPREEQYNSTYRVVSVLTVLHQDWLNGKEYKCKVSNKALPAPIEKTISKAKGQPREPQVYTLPPSREEMTKNQVSLTCLVKGFYPSDIAVEWESNGQPENNYKTTPPVLDSDGSFFLYSKLTVDKSRWQQGNVFSCSVMHEALHNAYTQKSLSLSPGK light: EVTLRESGPALVKPTQTLTLTCTFSGFSLSTYGMGVGWIRQPPGKALEWLANIWWDDDKYYNPSLKNRLTISKDTSKNQVVLTMTNMDPVDTATYYCARIESIGTTYSFDYWGQGTMVTVSSGGGGSDTVLTQSPATLSLSPGERATLSCRASESVSTHMHWYQQKPGQAPRLLIYGASNLESGVPARFSGSGSGTDFTLTISSLEPEDFAVYFCQQSWNDPFTFGQGTKLEIKGGSRTVAAPSVFIFPPSDEQLKSGTASVVCLLNNFYPREAKVQWKVDNALQSGNSQESVTEQDSKDSTYSLSSTLTLSKADYEKHKVYACEVTHQGLSSPVTKSFNRGEC |
